T1: HipA^C, C-terminal component of the split HipA toxin from Haemophilus influenzae (HI0665), His-tagged (H. influenzae (KW20 strain, ATCC 51907), UniProt P44033 1-343)
T1 construct: also called His-tagged HipA^C; not shown: His6, N-terminal, kept
T1 sequence: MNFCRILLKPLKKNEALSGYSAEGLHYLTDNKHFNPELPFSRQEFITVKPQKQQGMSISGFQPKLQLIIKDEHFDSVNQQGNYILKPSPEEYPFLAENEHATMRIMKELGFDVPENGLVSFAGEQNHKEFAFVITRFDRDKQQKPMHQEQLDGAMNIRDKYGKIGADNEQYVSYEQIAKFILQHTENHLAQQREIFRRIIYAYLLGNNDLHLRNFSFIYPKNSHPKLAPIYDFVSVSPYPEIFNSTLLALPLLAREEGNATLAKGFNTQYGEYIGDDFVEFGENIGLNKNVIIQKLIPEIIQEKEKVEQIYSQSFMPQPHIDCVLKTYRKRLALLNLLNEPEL


Assays:
[1] = target: HipB antitoxin from Haemophilus influenzae (HI0666.1) (H. influenzae (KW20 strain, ATCC 51907)) (UniProt P44034); test: cross-linking; chemical cross-linking of H. influenzae HipB with DMA and DMS cross-linkers, SDS-PAGE
[2] = target: T1, HipA^C, C-terminal component of the …; test: pull-down; settings: partners not purified

Molecule	stoichiometry N [1]	binding result [2]
HipB antitoxin from Haemophilus influenzae (HI0666.1) (from UniProt P44034 1-106) (natural protein)	2	–
HipA^N, N-terminal component of the split HipA toxin from Haemophilus influenzae (HI0666) (natural protein) MRDLVRSGKVFLYGEFIGLLREDHRGFHFSYNPDYQGIPLSLSFPIEQSPFHSDTLFPYFASLVPEGWLKHKYALHQRIDESDMFRFLLNNGENMLGAVQIQEEKQ	–	binds

From PMC9438503, “The Haemophilus influenzae HipBA toxin–antitoxin system adopts an unusual three-component regulatory mechanism” (IUCrJ, 2022)
